Measured values published in US20190077860A1 (EISAI R AND D MANAGEMENT, published 2019).
Changes are numbered by the printed parent chain. Values belong to the binder of their own block, whether it stands above or below them.

Assays:
Assay in all cases: ELISA
[1] = target: T1, human EphA1 extracellular region-SEAP-His protein (human, UniProt P21709 26-547)
T1 construct: extracellular domain; also called hEphA1-SEAP-His
T1 sequence (looked up): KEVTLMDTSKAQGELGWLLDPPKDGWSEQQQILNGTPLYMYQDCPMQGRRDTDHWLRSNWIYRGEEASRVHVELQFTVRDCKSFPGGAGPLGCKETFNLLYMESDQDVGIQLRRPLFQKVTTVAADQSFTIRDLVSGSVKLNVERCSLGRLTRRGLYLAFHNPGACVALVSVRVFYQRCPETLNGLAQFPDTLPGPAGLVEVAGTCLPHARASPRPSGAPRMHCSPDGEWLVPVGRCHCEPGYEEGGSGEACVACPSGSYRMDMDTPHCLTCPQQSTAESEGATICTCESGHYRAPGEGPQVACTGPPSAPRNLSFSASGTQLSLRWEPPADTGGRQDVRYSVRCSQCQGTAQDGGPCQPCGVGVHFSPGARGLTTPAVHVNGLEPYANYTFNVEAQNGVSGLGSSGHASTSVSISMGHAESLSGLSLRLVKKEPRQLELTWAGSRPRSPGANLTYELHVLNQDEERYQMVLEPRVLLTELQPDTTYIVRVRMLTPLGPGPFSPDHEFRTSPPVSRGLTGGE

[2] = target: T2, human EphA4 extracellular region-SEAP-His protein (human, UniProt P54764 20-547)
T2 construct: also called hEphA4-SEAP-His
T2 sequence (P54764 20-547): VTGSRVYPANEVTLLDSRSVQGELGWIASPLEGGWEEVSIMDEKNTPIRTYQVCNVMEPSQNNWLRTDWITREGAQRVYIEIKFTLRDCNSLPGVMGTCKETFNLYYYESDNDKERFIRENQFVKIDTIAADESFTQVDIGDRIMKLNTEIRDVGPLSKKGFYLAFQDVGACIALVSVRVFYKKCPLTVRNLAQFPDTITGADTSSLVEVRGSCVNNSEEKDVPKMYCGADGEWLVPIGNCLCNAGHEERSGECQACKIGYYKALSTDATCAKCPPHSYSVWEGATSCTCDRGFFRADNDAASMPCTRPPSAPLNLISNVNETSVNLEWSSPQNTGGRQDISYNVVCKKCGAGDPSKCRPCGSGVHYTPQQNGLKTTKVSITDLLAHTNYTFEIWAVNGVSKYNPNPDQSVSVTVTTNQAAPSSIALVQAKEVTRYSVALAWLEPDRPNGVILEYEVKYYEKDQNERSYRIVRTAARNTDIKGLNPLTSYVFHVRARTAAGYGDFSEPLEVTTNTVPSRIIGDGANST

[3] = target: T3, human EphA2 extracellular region-SEAP-His protein (human, UniProt P29317 24-537)
T3 construct: extracellular domain; also called hEphA2-SEAP-His
T3 sequence (P29317 24-537): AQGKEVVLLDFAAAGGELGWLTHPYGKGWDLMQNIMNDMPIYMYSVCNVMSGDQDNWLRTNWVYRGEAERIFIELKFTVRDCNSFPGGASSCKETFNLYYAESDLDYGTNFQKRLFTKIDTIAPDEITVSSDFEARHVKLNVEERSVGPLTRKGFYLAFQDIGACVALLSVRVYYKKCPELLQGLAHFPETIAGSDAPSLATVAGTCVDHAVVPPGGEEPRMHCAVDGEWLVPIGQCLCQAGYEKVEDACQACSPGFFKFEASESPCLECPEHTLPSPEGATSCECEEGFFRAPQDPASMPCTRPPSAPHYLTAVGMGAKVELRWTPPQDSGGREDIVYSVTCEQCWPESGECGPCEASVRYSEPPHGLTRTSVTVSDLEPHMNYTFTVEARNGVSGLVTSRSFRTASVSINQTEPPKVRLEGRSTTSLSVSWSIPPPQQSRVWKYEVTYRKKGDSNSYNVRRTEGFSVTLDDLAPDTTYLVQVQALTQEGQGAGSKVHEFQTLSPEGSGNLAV

[4] = target: T4, human EphB1 extracellular region-SEAP-His protein (human, UniProt P54762 18-540)
T4 construct: extracellular domain; also called hEphB1-SEAP-His
T4 sequence (looked up): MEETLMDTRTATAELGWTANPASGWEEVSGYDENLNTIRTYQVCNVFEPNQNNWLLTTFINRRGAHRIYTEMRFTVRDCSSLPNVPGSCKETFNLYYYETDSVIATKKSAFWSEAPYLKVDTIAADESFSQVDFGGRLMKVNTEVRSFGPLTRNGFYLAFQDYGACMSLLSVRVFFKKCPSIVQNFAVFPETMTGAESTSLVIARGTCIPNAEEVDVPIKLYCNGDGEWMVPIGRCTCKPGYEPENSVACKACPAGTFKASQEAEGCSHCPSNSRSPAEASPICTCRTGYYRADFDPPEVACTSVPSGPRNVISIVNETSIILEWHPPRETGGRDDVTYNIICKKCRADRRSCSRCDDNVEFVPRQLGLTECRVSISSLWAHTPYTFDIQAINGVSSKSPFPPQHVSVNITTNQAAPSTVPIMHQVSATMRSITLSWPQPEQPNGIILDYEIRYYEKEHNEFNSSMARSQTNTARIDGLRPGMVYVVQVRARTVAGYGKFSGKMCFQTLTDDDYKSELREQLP

[5] = target: T5, human EphA3 extracellular region-SEAP-His protein (human, UniProt P29320 21-541)
T5 construct: extracellular domain; also called hEphA3-SEAP-His
T5 sequence (looked up): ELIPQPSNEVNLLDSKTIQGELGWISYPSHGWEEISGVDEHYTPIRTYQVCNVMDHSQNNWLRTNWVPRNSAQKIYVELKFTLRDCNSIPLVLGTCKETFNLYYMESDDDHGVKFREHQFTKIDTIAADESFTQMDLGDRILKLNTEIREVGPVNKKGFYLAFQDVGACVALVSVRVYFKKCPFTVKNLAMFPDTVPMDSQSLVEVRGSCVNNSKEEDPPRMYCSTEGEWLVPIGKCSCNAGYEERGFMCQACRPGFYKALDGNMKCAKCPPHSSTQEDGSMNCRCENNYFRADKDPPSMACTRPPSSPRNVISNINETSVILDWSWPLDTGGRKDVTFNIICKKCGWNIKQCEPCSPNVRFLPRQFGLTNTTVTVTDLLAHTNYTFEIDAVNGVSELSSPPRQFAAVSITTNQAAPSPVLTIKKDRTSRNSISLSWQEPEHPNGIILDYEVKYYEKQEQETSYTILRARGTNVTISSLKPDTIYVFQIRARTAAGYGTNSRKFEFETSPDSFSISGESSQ

[6] = target: T6, human EphA8 extracellular region-SEAP-His protein (human, UniProt P29322 28-542)
T6 construct: extracellular domain; also called hEphA8-SEAP-His
T6 sequence (looked up): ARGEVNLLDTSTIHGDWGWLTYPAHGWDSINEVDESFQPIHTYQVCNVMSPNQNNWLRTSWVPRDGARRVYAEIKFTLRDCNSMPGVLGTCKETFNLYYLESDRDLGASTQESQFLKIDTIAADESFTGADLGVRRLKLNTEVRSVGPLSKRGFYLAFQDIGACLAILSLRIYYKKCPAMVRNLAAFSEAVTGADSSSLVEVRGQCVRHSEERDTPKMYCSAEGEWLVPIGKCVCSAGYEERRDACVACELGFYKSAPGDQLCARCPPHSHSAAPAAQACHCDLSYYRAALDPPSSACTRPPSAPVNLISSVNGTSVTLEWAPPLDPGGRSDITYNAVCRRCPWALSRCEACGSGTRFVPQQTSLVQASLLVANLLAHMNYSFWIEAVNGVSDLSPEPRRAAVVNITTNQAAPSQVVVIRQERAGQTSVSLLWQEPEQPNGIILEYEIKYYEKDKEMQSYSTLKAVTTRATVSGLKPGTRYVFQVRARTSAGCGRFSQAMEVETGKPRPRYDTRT

A450 as % of hEphA4-SEAP-His [1]: 6% | A450 as % of hEphA4-SEAP-His [2]: 100% | A450 as % of hEphA4-SEAP-His [3]: 5.7% | A450 as % of hEphA4-SEAP-His [4]: 5.9% | A450 as % of hEphA4-SEAP-His [5]: 5.6% | A450 as % of hEphA4-SEAP-His [6]: 6%
B3: humanized antibody No. 143 (antibody, human IgG2)
heavy: QIQLVQSGSELKKPGASVKVSCKASGYTFTDYSMHWVRQAPGQGLKWMGWINTETGEPTYADDFKGRFVFSLDTSVSTAYLQISSLKAEDTAVYYCARIPLYYYGSRYWYFDVWGQGTTVTVSSASTKGPSVFPLAPSSRSTSESTAALGCLVKDYFPEPVTVSWNSGALTSGVHTFPAVLQSSGLYSLSSVVTVPSSNFGTQTYTCNVDHKPSNTKVDKTVERKSCVECPPCPAPPAAAPSVFLFPPKPKDTLMISRTPEVTCVVVDVSHEDPEVQFNWYVDGVEVHNAKTKPREEQFNSTFRVVSVLTVVHQDWLNGKEYKCKVSNKGLPAPIEKTISKTKGQPREPQVYTLPPSREEMTKNQVSLTCLVKGFYPSDIAVEWESNGQPENNYKTTPPMLDSDGSFFLYSKLTVDKSRWQQGNVFSCSVMHEALHNHYTQKSLSLSPG
light: DIQMTQSPSSLSASVGDRVTITCRASENIYRNLAWYQQKPGKAPKLLVYAATNLADGVPSRFSGSGSGTDYTLTISSLQPEDFATYYCQHFWGTPWTFGQGTKVEIKRTVAAPSVFIFPPSDEQLKSGTASVVCLLNNFYPREAKVQWKVDNALQSGNSQESVTEQDSKDSTYSLSSTLTLSKADYEKHKVYACEVTHQGLSSPVTKSFNRGEC
notes: human Ig kappa; also called L1-4/HK4

A450 as % of hEphA4-SEAP-His [1]: 5.6% | A450 as % of hEphA4-SEAP-His [2]: 100% | A450 as % of hEphA4-SEAP-His [3]: 5.6% | A450 as % of hEphA4-SEAP-His [4]: 5.6% | A450 as % of hEphA4-SEAP-His [5]: 5.5% | A450 as % of hEphA4-SEAP-His [6]: 5.7%
B4: humanized antibody No. 142 (antibody, human IgG2)
heavy: B3 heavy with I2V
light: B3 light
notes: human Ig kappa; also called L1-4/HK2

A450 as % of hEphA4-SEAP-His [1]: 5.6% | A450 as % of hEphA4-SEAP-His [2]: 100% | A450 as % of hEphA4-SEAP-His [3]: 5.6% | A450 as % of hEphA4-SEAP-His [4]: 5.7% | A450 as % of hEphA4-SEAP-His [5]: 5.7% | A450 as % of hEphA4-SEAP-His [6]: 5.8%
B5: humanized antibody No. 144 (antibody, human IgG2)
heavy: B3 heavy with I2V, K46E
light: B3 light with K45Q, V48L
notes: human Ig kappa; also called L1-6/HK1

Second part, the binder before the results:

B1: humanized antibody No. 89 (antibody, human IgG1, kappa)
heavy: QIQLVQSGSELKKPGASVKVSCKASGYTFTDYSMHWVRQAPGQGLKWMGWINTETGEPTYAQGFTGRFVFSLDTSVSTAYLQISSLKAEDTAVYYCARIPLYYYGSRYWYFDVWGQGTTVTVSSASTKGPSVFPLAPSSKSTSGGTAALGCLVKDYFPEPVTVSWNSGALTSGVHTFPAVLQSSGLYSLSSVVTVPSSSLGTQTYICNVNHKPSNTKVDKRVEPKSCDKTHTCPPCPAPPAAAPSVFLFPPKPKDTLMISRTPEVTCVVVDVSHEDPEVQFNWYVDGVEVHNAKTKPREEQFNSTFRVVSVLTVVHQDWLNGKEYKCKVSNKGLPAPIEKTISKTKGQPREPQVYTLPPSREEMTKNQVSLTCLVKGFYPSDIAVEWESNGQPENNYKTTPPMLDSDGSFFLYSKLTVDKSRWQQGNVFSCSVMHEALHNHYTQKSLSLSPG
light: B3 light with K45Q, V48L
notes: human Ig kappa; also called L1-6/HA4
A450 as % of hEphA4-SEAP-His [1]: 5.5% | A450 as % of hEphA4-SEAP-His [2]: 100% | A450 as % of hEphA4-SEAP-His [3]: 5.6% | A450 as % of hEphA4-SEAP-His [4]: 5.7% | A450 as % of hEphA4-SEAP-His [5]: 5.8% | A450 as % of hEphA4-SEAP-His [6]: 5.7%

B2: humanized antibody No. 140 (antibody, human IgG2)
heavy: B3 heavy with I2V, D62Q, D63G, K65T
light: B3 light
notes: human Ig kappa; also called L1-4/HA2
A450 as % of hEphA4-SEAP-His [1]: 5.5% | A450 as % of hEphA4-SEAP-His [2]: 100% | A450 as % of hEphA4-SEAP-His [3]: 5.3% | A450 as % of hEphA4-SEAP-His [4]: 5.3% | A450 as % of hEphA4-SEAP-His [5]: 5.5% | A450 as % of hEphA4-SEAP-His [6]: 5.4%

B6: humanized antibody No. 92 (antibody, human IgG1, kappa)
heavy: B1 heavy with Q62D, G63D, T65K
light: B3 light with K45Q, V48L
notes: human Ig kappa; also called L1-6/HK4
A450 as % of hEphA4-SEAP-His [1]: 7% | A450 as % of hEphA4-SEAP-His [2]: 100% | A450 as % of hEphA4-SEAP-His [3]: 6.9% | A450 as % of hEphA4-SEAP-His [4]: 6.9% | A450 as % of hEphA4-SEAP-His [5]: 6.5% | A450 as % of hEphA4-SEAP-His [6]: 6.7%
